Reference: patent publication US20260242430A1, “NOVEL FUNGAL DERIVED COMPOUNDS” (Aalborg Universitet, priority 2023, published 2026)
Positions count from the first letter of the chain named.

B1: AP1: single domain antibody (sdAb) selected against Apiosporin, SEQ ID NO: 6 (protein)
VHH: EVQLLESGGGLVQPGGSLRLSCAASGFRDSDEDMGWVRQAPGKGLEWVSSIYSYNGSTYYADSVKGRFTISRDNSKNTLYLQMNSLRAEDTAVYYCASDRGGYNSFDYWGQGTLVTVSSAAA
B2: AP2: single domain antibody (sdAb) selected against Apiosporin, SEQ ID NO: 11 (protein)
VHH: EVQLLESGGGLVQPGGSLRLSCAASGFRDSDEDMGWVRQAPGKGLEWVSSIETPDGSTYYADSVKGRFTISRDNSKNTLYLQMNSLRAEDTAVYYCASQPVYSYHFDYWGQGTLVTVSSAAA
B3: AP3: single domain antibody (sdAb) selected against Apiosporin, SEQ ID NO: 16 (protein)
VHH: B1 VHH with Y52G, S53G, D99E, R100G, G101Y, G102Y, Y103T, N104S, S105A
B4: AP4: single domain antibody (sdAb) selected against Apiosporin, SEQ ID NO: 21 (protein)
VHH: B1 VHH with Y52D, S53A, Y54E, N55D, R100S, G102D, Y103W, N104F
B5: AP7: single domain antibody (sdAb) selected against Apiosporin, SEQ ID NO: 31 (protein)
VHH: B2 VHH with T53G, D55S, Q99V, P100T, V101W, Y102W, S103T, Y104H, H105P

Tests used:
[1] = test system: Apiosporin from a lysate of Apiospora arundinis (Isolate AAU773); assay: Octet measurement of sdAbs capturing Apiosporin from fungal lysate; assay type: binding
Procedure: The Aim was to establish that selected antibody fragments could capture their target antigen Apiosporin from a lysate of WT Apiospora arundinis (Isolate AAU773), whereas no antigen would be bound specifically to the antibody fragments when KO Apiospora arundinis were applied in the binding assay.
The sdAbs produced as in example 9 were applied to amine reactive biosensors from Sartorius for the Octet instrument. First the reagents were prepared according to the AR2G kit instructions. For a standard immobilization scouting assay 200 μL/well of water was added to column 1 of a 96-well plate. The 200 μL/well 1 M ethanolamine pH 8.5 were added to column 4. 200 μL/well assay running buffer into column 5. Here the provided Kinetics Buffer (dilute the 10× Kinetics Buffer 10-fold in PBS) was used. 200 μL/well of the sdAbs were added to column 6 at a concentration of 500 nM. The sdAbs were prepared to be immobilized. Protein was prepared in each of the 10 mM acetate buffers at pH 4, 5 and 6. A starting ligand concentration of at least 20 μg/mL is recommended. The ligand concentration may be decreased as low as 5 μg/mL if the immobilization time is extended; some performance loss is expected at lower ligand concentrations. Prepare 500 μL at each pH.
As Apiosporin is present in an unknown concentration in the crude extracts, it is not possible to estimate a Kd from the sensorgram. Also, it is not possible to fit the raw data to a nice binding curve when a ligand concentration is not known. However, in order to allow fitting a concentration of 100 nM and 10 nM (resulting in almost identical fitting curves) of Apiosporin were inserted. The same fitting settings were used for all (data correction aligning to the association step with baseline correction to dissociation, Savitzky-Golay filtering to smoothen the curves, 1:1 model graph fitting to association and dissociation separately). […] It thus establishes that there is a normal association/dissociation between Apiosporin and sdAbs for the WT, but no association/dissociation for the KO as expected. Thus, it is seen that the antibodies are specific against the compound produced from the NRPS.

Apiosporin = assay: Immunoprecipitation of Apiosporin from fungal extract by sdAbs with mass spec identification; assay type: binding, Apiospora arundinis; details: Protein A SpinTrap
Procedure: 50 μl of the partial pure sdAbs prepared in example 9 and 150 μl fungal extract (resuspended in PBS with 500 mM NaCl and 0.2% Tween20) were incubated overnight at 4° C. The mixed sdAb and fungal extract were purified on a SpinTrap Protein A from Cytivia accoridng to manufactures instructions except that the elution was performed into 50% AcN 5% formic acid.
The same immune precipitations were analysed by HPLC-DAD-HRMS using a Hitachi Elite LaChrom HPLC system, equipped with a phenyl-hexyl 100 Å (150×4.6 mm Kinetex 5 μm, Phenomenex) column kept at 40° C. and coupled by a 5:95 flow splitter to a high-resolution mass spectrometer (compact qTOF, Bruker) with an electrospray source (Capilary: 4500 V; end plate offset 500 V; Dry gas 4.0 L/min, 200° C.) operated in positive mode. The injection volume was set to 30 μL and separated using a 1.2 mL/min gradient initiating at 10% solvent A (acetonitrile (HiPerSolv CHROMANORM, VWR) with 0.1% v/v formic acid (MS-grade 98%, Sigma-Aldrich)) in 90% solvent B (water (HiPerSolv CHROMANORM, VWR) with 0.1% v/v formic acid (MS-grade 98%, Sigma-Aldrich)), increasing linearly to 100% solvent A over 17 minutes and held for 6 minutes. After 0.5 minutes from sample injection, 2 μL calibrant (10 mM NaOH and 26 mM formic acid (MS-grade 98%, Sigma-Aldrich) in 1:1 water (HiPerSolv CHROMANORM, VWR): isopropanol) was injected directly to the mass analyser and used for internal spectra calibration. Mass spectrometric instrument control, data recording and data processing was performed using Compass DataAnalysis 4.2 SR2 (Bruker).

[2] = test system: Apiospora arundinis (Isolate AAU773); assay: Immunofluorescent staining of Apiospora arundinis with sdAbs; assay type: cell-based; details: primary sdAb 70 nM, ALFA tag secondary (Alexa 647)
Procedure: Apiospora arundinis (Isolate AAU773) were grown in liquid culture and spotted on glass cover slips where they were immobilized using tape. The fungi were fixed by addition of 3.7% paraformaldehyde for 10 min. Then blocking with 5% skim milk in PBS before staining with the primary sdAbs (70 nM) overnight, secondary antibody (ALFA sdAb-FluoTag-X2 from Synaptic Systems, the antibody was labelled with Alexa flour 647 and used at a dilution of 1:500 for 3 h, washing 3×5 min with PBS, then staining for 2 min with calcofluor white stain (calcofluor white 1 g/l, evans blue 0.5 g/l), then wash 1×5 min with PBS.

[3] = WT fungal extract, 1:1 model fit, Apiosporin concentration assumed 100 nM

Molecule | Association/dissociation (binding to ligand) on Octet ([1]; KO fungal extract) | Association/dissociation (binding to ligand) on Octet [1, 3] | Immunoprecipitation of Apiosporin, identified by mass spec (Apiosporin) | Immunofluorescent staining of septa ([2]; KO fungi) | Immunofluorescent staining of septa ([2]; WT fungi)
B1 | absent in the KO | binding to a ligand present in the WT extracts | identification of Apiosporin after immunoprecipitation | No clearly staining in septa | Staining is clearly shown in septa between two hyphae
B2 | absent in the KO | binding to a ligand present in the WT extracts | identification of Apiosporin after immunoprecipitation |  | 
B3 | absent in the KO | binding to a ligand present in the WT extracts |  |  | 
B4 | absent in the KO | binding to a ligand present in the WT extracts |  |  | 
B5 |  |  | identification of Apiosporin after immunoprecipitation |  | 
